Assay results from patent publication US8106168B2, “Metalloproteinase binding proteins” (Dyax Corp., priority 2005, dated 2012).

Experiments:
MMP-14 [1] = target: T1, MMP-14 (Homo sapiens, UniProt P50281); assay: Selection and phage ELISA screening of anti-MMP-14 Fabs; assay type: binding; settings: Fab from FAB310 phage display library
In short: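 Phage ELISA screened 95 clones from each of rounds 2 and 3 against biotinylated MMP-14 (1 μg/ml) captured on streptavidin, in TRIS/CaCl2/NaCl pH 7.5. The clones came from Fab library selections on biotinylated MMP-14, either free or TIMP-2-complexed (500 nM round 1, 100 nM later rounds). Elution used 2.5 μM TIMP-2 followed by TEA.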

MMP-14 [2] = target: T1, MMP-14; assay: IC50 for MMP-14 inhibition by Fabs and IgGs; assay type: biochemical; settings: Fab
Protocol: MMP-14 binding proteins can be characterized in assays that measure their modulatory activity toward MMP-14 or fragments thereof in vitro or in vivo. For example, MMP-14 can be combined with a substrate such as Mca-Pro-Leu-Ala-Cys(Mob)-Trp-Ala-Arg-Dap(Dnp)-NH2 under assay conditions permitting cleavage by MMP-14. The assay is performed in the absence of the MMP-14 binding protein, and in the presence of increasing concentrations of the MMP-14 binding protein. The concentration of binding protein at which 50% of the MMP-14 activity (e.g., binding to the substrate) is inhibited is the IC50 value (Inhibitory Concentration 50%) or EC50 (Effective Concentration 50%) value for that binding protein.

MMP-16 [3] = target: T2, MMP-16 (Homo sapiens, UniProt P51512); assay: Cross-reactivity of Fabs and IgGs with MMP-16 (Example 8); assay type: biochemical; design: key to MMP-16 (cross-reactivity, class symbol): X: Does not inhibit MMP-16 at [I] = 100 nM level; settings: 5 nM MMP16, 30 minutes at 30° C., 10 μM substrate
T2 sequence (P51512 120-607): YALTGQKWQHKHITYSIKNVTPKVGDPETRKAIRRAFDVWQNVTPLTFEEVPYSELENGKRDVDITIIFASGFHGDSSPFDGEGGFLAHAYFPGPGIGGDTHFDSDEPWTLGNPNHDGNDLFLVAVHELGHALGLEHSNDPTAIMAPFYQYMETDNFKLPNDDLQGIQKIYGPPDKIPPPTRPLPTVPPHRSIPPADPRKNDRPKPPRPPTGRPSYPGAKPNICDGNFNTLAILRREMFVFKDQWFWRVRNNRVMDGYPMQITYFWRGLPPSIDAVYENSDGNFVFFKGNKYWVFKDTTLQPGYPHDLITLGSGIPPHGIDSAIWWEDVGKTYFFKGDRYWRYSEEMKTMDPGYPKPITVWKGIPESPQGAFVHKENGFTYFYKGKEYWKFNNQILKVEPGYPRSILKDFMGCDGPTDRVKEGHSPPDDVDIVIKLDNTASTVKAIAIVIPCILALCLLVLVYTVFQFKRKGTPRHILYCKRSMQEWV
Protocol: For the studies summarized in Tables 13 and 14, 100 nM anti-MMP-14 Fab/IgG were incubated with 5 nM MMP16 for 30 minutes at 30° C., 10 μM of substrate was added, and the MMP-16 activity was measured.

MMP-16 [4] = target: T2, MMP-16; assay: Cross-reactivity of Fabs with MMP-16 (Example 9); assay type: biochemical; design: key: X: Do not inhibit MMP-16 or MMP-24 at [I] = 100 nM level; Y: partially inhibit at [I] = 100 nM level; settings: Fab, 100 nM final inhibitor concentration, 5 nM MMP-16
Protocol: (§1) For the studies summarized in Table 15, 1 μM of anti-MMP-14 Fab/IgG (100 nM final inhibitor concentration) were incubated with 5 nM of MMP-16 or 5 nM of MMP-24 for 30 minutes at 30° C., 10 μM of substrate was added, and the MMP-16 activity was measured.

MMP-24 = MMP-24 (Homo sapiens, UniProt Q9Y5R2); assay: Cross-reactivity of Fabs with MMP-24 (Example 9); assay type: biochemical; design: key to MMP-24 (cross-reactivity, class symbol): X: Do not inhibit MMP-16 or MMP-24 at [I] = 100 nM level; Y: partially inhibit at [I] = 100 nM level; settings: Fab, 100 nM final inhibitor concentration; 5 nM MMP-24
Sequence of MMP-24 (Q9Y5R2 156-645): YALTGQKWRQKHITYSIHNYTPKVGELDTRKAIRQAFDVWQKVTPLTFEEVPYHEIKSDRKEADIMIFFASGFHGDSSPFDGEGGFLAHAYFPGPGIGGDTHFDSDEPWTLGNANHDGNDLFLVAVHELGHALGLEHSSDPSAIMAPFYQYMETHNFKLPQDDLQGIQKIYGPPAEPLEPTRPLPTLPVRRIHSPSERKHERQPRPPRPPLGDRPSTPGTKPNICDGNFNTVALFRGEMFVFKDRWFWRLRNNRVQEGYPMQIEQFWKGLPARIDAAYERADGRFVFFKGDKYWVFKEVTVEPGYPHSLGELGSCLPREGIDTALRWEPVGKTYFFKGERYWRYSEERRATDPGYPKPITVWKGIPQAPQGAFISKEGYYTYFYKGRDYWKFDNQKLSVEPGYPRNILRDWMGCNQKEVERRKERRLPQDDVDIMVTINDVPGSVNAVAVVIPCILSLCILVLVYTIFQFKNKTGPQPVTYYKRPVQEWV
Protocol: as §1

[5] = system: Tumor Cells Expressing MMP-14 (HT-1080, LNCaP, MDA-MB-231, PC3); assay: Binding of IgGs to tumor cells, immunocytochemistry and flow cytometry; assay type: cell-based, human; settings: ICC versus flow cytometry
Protocol: The ability of twelve biotinylated-MMP-14 binding IgGs to bind to tumor cells expressing MMP-14 was evaluated using both immunocytochemistry (ICC) and flow cytometry. The cell lines tested were HT-1080 (a human fibrosarcoma cell line), LNCaP (human, prostate, carcinoma), MDA-MB-231 (human, breast, adenocarcinoma), or PC3 (Human prostatic cancer cells) cells. MMP-14 is expressed on HT-1080 cells (Cancer Res. (2005) 65(23):10959-69.). MMP-14 is expressed on PC-3 cells (Oncol Rep. (2006) 15(1):199-206). LNCaP express MMP-14 (Endocrinology (2003) 144(5):1656-1663) at a relatively low level. […] MMP-14 is expressed by MDA-MB-231 cells (Int J Cancer. (2005) 114(4):544-554.).
Cells (2×10^5) were cultivated on cell culture slides in complete medium. At confluency, cells were washed with PBS and fixed with 4% paraformaldehyde for 30 minutes at room temperature. Endogenous peroxidases were blocked with 3% hydrogen peroxide for 20 minutes. Nonspecific binding sites were blocked by incubation with 10% heat inactivated human serum 10% normal rabbit serum for 30 minutes at room temperature. Cells were then incubated with biotinylated or non-biotinylated MMP-14 binding proteins at 10 μg/ml for 2 hours at room temperature. […] Binding was detected with the substrate AEC+(25 minutes at room temperature in the dark). […]

B1: M0038-F08: human antibody (Fab, IgG) that binds and inhibits MMP-14; HC SEQ ID NO: 158, LC SEQ ID NO: 159 (antibody, V domains shown)
VH: EVQLLESGGGLVQPGGSLRLSCAASGFTFSRYKMWWVRQAPGKGLEWVSGIRPSGGLTRYADSVKGRFTISRDNSKNTLYLQMNSLRAEDTAVYYCARRGDYVGGFDYWGQGTLVTVSS
VL: QDIQMTQSPGTLSLSPGERATLSCRASQSVSSSYLAWYQQKPGQAPRLLIYGASSRATGIPDRFSGSGSGTDFTLTISRLEPEDFAVYYCQHYGGSQAFGGGTKVEIK
modifications: Synthetically generated peptide
bind to human MMP-14 (MMP-14 [1]): bind to human MMP-14
bind to and inhibit human MMP-14 (MMP-14 [2]): bind to and inhibit human MMP-14
MMP-16 (cross-reactivity, class symbol) (MMP-16 [3]; Fab 100 nM): X
MMP-16 (cross-reactivity, class symbol) (MMP-16 [3]; IgG 100 nM): X
MMP-16 (cross-reactivity, class symbol) (MMP-16 [4]): X
MMP-24 (cross-reactivity, class symbol) (MMP-24): X
Staining, remark on method [5]: (only positive in immunocytochemistry, ICC)
